Experimental data taken from patent US20240262922A1 (Merck KGaA, published 2024).

Legend:
[1] = biological target: T1, recombinant human OX40L protein (R&D Systems, cat. #1054-OX) (human, UniProt P23510 51-183); test: SPR steady state, Biacore T200; OX40L immobilised on CM5, antibody in solution
T1 construct: Bought soluble recombinant protein; also called rhOX40L; recombinant soluble OX40L
T1 sequence: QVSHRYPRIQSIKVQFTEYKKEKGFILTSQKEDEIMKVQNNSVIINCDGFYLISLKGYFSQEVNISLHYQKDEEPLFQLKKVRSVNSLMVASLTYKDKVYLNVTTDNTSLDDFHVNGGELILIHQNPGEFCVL
Protocol: Recombinant OX40L proteins (human OX40L protein, R&D systems, cat. #1054-OX; cynomolgus monkey OX40L, Novoprotein cat. #CP72) were immobilized onto Biacore CM5 sensor chips and anti-OX40L antibodies were bound to this surface at a range of concentrations. The response at steady state was measured with a Biacore T200 instrument (GE Healthcare) and plotted against the concentration of antibody and fit to a 1:1 binding model. The steady state KD was determined as the antibody concentration at a response equal to half the maximal response (Rₘₐₓ).
As with the IgG clones, binding affinity to human OX40L was determined for all twelve FcFabs using steady state affinity assay as described in section 1.1.7 of Example 1. […]

AVI-GST-His6-hOX40L = biological target: T2, AVI-GST-His6-hOX40L (human, UniProt P23510 51-183); test: cell-based or functional assay
T2 sequence: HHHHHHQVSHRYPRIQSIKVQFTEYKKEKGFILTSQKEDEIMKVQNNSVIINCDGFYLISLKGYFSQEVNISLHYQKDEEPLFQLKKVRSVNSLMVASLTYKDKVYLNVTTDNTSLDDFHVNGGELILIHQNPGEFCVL

[2] = biological target: T1, recombinant human OX40L protein (R&D …); test: cell-based or functional assay

B1: 84E11 (FcFab) (antibody)
heavy: EPKSSDKTHTCPPCPAPPVAGPSVFLFPPKPKDTLMISRTPEVTCVVVDVSHEDPEVKFNWYVDGVEVHNAKTKPREEQYNSTYRVVSVLTVLHQDWLNGKEYKCAVSNKALPSSIEKTISKAKGQPREPQVYTLPPSREEMTKNQVSLTCLVKGFYPSDIAVEWESNGQPENNYKTTPPVLDSDGSFFLYSKLTVDKSRWQQGNVFSCSVMHEALHNHYTQKSLSLSPGAGGGGSGGGGSGGGGSQLQLQESGPGLVKPSETLSLTCTVSGGSISSGSFYWGWIRQPPGKGLEWIGTIYYSGSTYYNPSLKSRVAISVDTSKNQFYLNLNFVTAADTAVYHCARERSSSWYPFDYWGQGTLVTVSSASTKGPSVFPLAPSSKSTSGGTAALGCLVKDYFPEPVTVSWNSGALTSGVHTFPAVLQSSGLYSLSSVVTVPSSSLGTQTYICNVNHKPSNTKVDKRVEPKSC
light: SSELTQDPAVSVALGQTVRITCQGDSLRNYFANWYQQKPGQAPVLVIYGKNNRPSGIPDRFSGSSSGNTASLTITGAQAEDEADYYCNSRDSSGYHVVFGGGTKLTVLGQPKAAPSVTLFPPSSEELQANKATLVCLISDFYPGAVTVAWKADSSPVKAGVETTTPSKQSNNKYAASSYLSLTPEQWKSHKSYSCQVTHEGSTVEKTVAPTECS
[1]
  binding result: no binding
AVI-GST-His6-hOX40L
  OX40L neutralization/OX40-HEK Reporter IC50: 57.2 nM
[2]
  Primary T cell activation assay IC50: 15.2 nM
